Changes are numbered by the printed parent chain.

Assay [1] concerns the target T1, CD47 protein (construct not stated; SPR antigen, CD47 coated ELISA plates) (Homo sapiens (Human), UniProt Q08722 19-139, limits assumed).
T1 construct: also called the antigen
In words: ELISA on CD47, OD450 against Log[M]; column headed KD beside the legend. For orientation: In an ELISA, binding on a coated surface is turned into a signal by an enzyme label.

In assay [2] the target is T2, human CD47 expressed on cells (CD47 expressing CHO cells, Jurkat, HL60, DLD1, Raji) (human, UniProt Q08722 19-292).
T2 construct: also called CHO-CD47; IAP
In words: flow cytometry on human platelets, donor 1, MFI.

Assay [3] addresses T2, human CD47 expressed on cells (CD47 …). In words: flow cytometry on human platelets, donor 2, MFI.
Assay [4] has the same target. In words: flow cytometry on human red blood cells, donor 1, MFI. (In flow cytometry, cells or beads pass a laser one at a time.)
For assay [5] the target is unchanged. In words: flow cytometry on human red blood cells, donor 2, MFI.
For assay [6] the target is unchanged. In words: flow cytometry blocking assay on Raji cells, SIRPα is the blocked ligand, MFI.
Assay [7] has the same target. In words: IC50 as grade, SIRPα blocking on Raji cells (second part of the table); legend +++: <1 nM.
In assay [8] the target is T1, CD47 protein (construct not stated; SPR …). In words: SPR (Biacore T100), affinity (nM) as grade; legend +: >10 nM and <40 nM. In general terms: In SPR one partner is held on a chip, and binding of the other changes the refractive index at the surface.
In assay [9] the target is T2, human CD47 expressed on cells (CD47 …). In words: EC50 (nM) as grade, binding on Jurkat cells; legend +++: >0.05 nM and <1 nM.
Assay [10] shares this target. In words: EC50 (nM) as grade, binding on CHO-CD47 cells; legend +++: >0.05 nM and <1 nM.
The next assay has as its target T3, CHO/mCD47-GFP (mouse, UniProt Q61735).
T3 construct: on the cell surface; also called mouse CD47 expressed on CHO cells; CHO cell expressing mouse CD47
T3 sequence (receptor, looked up): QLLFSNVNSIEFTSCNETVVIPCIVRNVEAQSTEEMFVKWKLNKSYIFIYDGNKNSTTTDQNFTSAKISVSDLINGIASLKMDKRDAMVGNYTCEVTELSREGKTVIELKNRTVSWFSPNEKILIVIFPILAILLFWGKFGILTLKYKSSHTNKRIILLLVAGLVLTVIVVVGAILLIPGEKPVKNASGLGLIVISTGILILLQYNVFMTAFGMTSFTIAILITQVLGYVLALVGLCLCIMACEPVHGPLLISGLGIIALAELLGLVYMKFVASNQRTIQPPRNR
In words: flow cytometry on CHO cells expressing mouse CD47-GFP, binding percentage.

The target of assay [11] is T4, human CD47-Fc protein (Novoprotein, Cat#CG18) (human, UniProt Q08722 19-139).
T4 construct: Bought protein; also called CD47-hFc; hCD47-hFc fusion protein; not shown: human IgG Fc of the bought fusion protein
In words: IC50 (nM) as grade, neutralizing ELISA, CD47-hFc on SIRPα coated plate; legend ++++: <8 nM.

Assay [12] deals with T2, human CD47 expressed on cells (CD47 …). In words: flow cytometry on human red blood cells, donor 2, MFI; EC50 (nM) table beside the legend.
The target of assay [13] is T4, human CD47-Fc protein (Novoprotein, …). In words: IC50 (nM) as grade, blocking of soluble CD47 binding to SIRPα-expressing CHO cells; legend ++: >1 nM and <10 nM.
Assay [14] has as its target T2, human CD47 expressed on cells (CD47 …). In words: flow cytometry on CD47 expressing CHO cells, MFI (FL-4).
The target of assay [15] is T5, biotin labelled polyhistidine tagged CD47 protein (Novoprotein, Cat#321) (human, UniProt Q08722 19-139, biotin labelled (site not stated)).
T5 construct: Bought protein; also called biotinylated CD47; biotinylated human CD47 protein; not shown: polyhistidine tag
In words: flow cytometry blocking assay: antibody mixed with biotinylated human CD47 protein; blocked ligand SIRPα on cells; binding percentage.

Assay [16] deals with T2, human CD47 expressed on cells (CD47 …). In words: flow cytometry on DLD1 cells, IgG, MFI.
Assay [17] has the same target. In words: flow cytometry on DLD1 cells, IgG, frequency.
Assay [18] has the same target. In words: IC50 (nM) MFI as grade, blocking biotinylated SIRPa-Fc binding to DLD1 cells; legend +++: <1 nM.
Assay [19] has the same target. In words: IC50 (nM) Frequency as grade, blocking biotinylated SIRPa-Fc binding to DLD1 cells; legend +++: <1 nM.
The target is the same in assay [20]. In words: flow cytometry blocking assay: 100 nM biotinylated SIRPa-Fc (blocked ligand) on DLD1 cells expressing CD47, MFI.
The target is the same in assay [21]. In words: flow cytometry blocking assay: 100 nM biotinylated SIRPa-Fc (blocked ligand) on DLD1 cells expressing CD47, frequency.

B1: H-ABU2a (antibody, V domains shown)
VH: QVQLVQSGAEVKKPGASVKVSCKASGYTFTDFYINWVRQAPGQRLEWMGWIYLGSGNTKYNEKFKGRVTITRDTSASTAYMELSSLRSEDTAVYYCARREERGFAYWGQGTLVTVSS
VL: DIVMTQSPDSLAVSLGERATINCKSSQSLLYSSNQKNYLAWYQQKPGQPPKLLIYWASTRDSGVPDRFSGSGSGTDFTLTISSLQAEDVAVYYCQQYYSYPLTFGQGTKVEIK
What is called Kd is the equilibrium constant for the complex coming apart. A high value points to lower affinity. As to B1, in assay [1], the Kd turned out to be 1.6 nM.

B2: H-ABU 11 (antibody, V domains shown)
VH: B1 VH
VL: DIVMTQSPDSLAVSLGERATINCKSSQSLLSSSQKNYLAWYQQKPGQPPKLLIYWASTRDSGVPDRFSGSGSGTDFTLTISSLQAEDVAVYYCQQFYSYPLTFGQGTKVEIK
For orientation: EC50 (read off the curve) means the concentration giving half of the maximal effect. Read a high EC50 (read off the curve) as weaker potency. One may read the IC50 as the concentration that inhibits the measured activity by half. High values mean weaker potency, low ones greater potency. Turning to B2, the “EC50 (read off the curve)” value in assay [2] is around 1 nM; in assay [3], around 0.9 nM; in assay [4] it was around 1 nM; in assay [5] it was around 1 nM. The “IC50 (read off the curve)” value in [6] is around 0.8 nM. This molecule yielded an IC50 in [7] below 1 nM.

B3: H-ABU2c (antibody, V domains shown)
VH: B1 VH with A24V, R72V
VL: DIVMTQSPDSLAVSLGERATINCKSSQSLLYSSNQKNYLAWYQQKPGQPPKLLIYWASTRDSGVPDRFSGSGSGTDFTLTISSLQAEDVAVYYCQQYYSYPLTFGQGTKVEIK
Turning to B3, the Kd in [1] amounted to 1.5 nM.

B4: H-ABU 8 (antibody, V domains shown)
VH: B1 VH with F32N, I51V
VL: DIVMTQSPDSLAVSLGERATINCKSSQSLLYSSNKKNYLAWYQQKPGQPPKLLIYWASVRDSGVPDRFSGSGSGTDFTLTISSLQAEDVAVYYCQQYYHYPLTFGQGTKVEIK
Regarding B4, the “IC50 (read off the curve)” value in assay [6] was around 0.2 nM. The molecule also gave a half-inhibitory concentration (IC50) in assay [7] below 1 nM.

B5: ABU2 (antibody, V domains shown)
VH: QVQLQQPGAELVRPGASVKLSCKASGYTFTNYWMNWFKQRPEQGLEWIGRIDPYDSETLYNQKFKDKAILTVDKSSSTAYMQLSSLTSEDSAVYYCAGGGKGGFGYWGQGTLVTVSA
VL: DVLMTQTPLSLPVSLGDQASISCRSSQSIVYSNGNTYLEWYLQKPGQSPKLLIYKVSNRFSGVPDRFSGSGSGTDFTLKISRVEAEDLGVYYCFQGSHVPYTFGGGTKLEIK
notes: Murine hybridoma monoclonal antibody
Usually EC50 stands for the concentration that produces a half-maximal response. Read a low EC50 as greater potency. For the molecule B5, the “Affinity by SPR” value in [8] is 10 to 40 nM. Also, the EC50 was 0.05 to 1 nM in [9], 0.05 to 1 nM in [10] and 0.25 nM in assay [12]. In the assay with CHO/mCD47-GFP, the binding result is given as “no binding (tested: about 0.4 ug/ml)”. The IC50 in assay [11] is below 8 nM; in assay [13], 1 to 10 nM.

B6: C-ABU2 (antibody, V domains shown)
VH: B5 VH
VL: B5 VL
Consider B6, for which the “EC50 (read off the curve)” value in [14] was around 1 nM. Also, in assay [15], the “IC50 (read off the curve)” value was around 3 nM.

B7: Positive 1 (commercial anti-CD47 blocking antibody, eBioscience Cat#14-0479) (antibody, V domains shown)
VH: EVQLVESGGDLVKPGGSLKLSCAASGFTFSGYGMSWVRQTPDKRLEWVATITSGGTYTYYPDSVKGRFTISRDNAKNTLYLQIDSLKSEDTAIYFCARSLAGNAMDYWGQGTSVTVSS
VL: DIVMTQSPATLSVTPGDRVSLSCRASQTISDYLHWYQQKSHESPRLLIKFASQSISGIPSRFSGSGSGSDFTLSINSVEPEDVGVYYCQNGHGFPRTFGGGTKLEIK
notes: also called Pos; B6H12
Regarding B7, the “Affinity by SPR” value in assay [8] lay in the range of 10 to 40 nM. Besides, the EC50 in assay [9] and in [10] was 0.05 to 1 nM in each case. Further, in the assay with CHO/mCD47-GFP, the binding result is “no binding (tested: about 0.4 ug/ml)”. Further, the figures for the IC50 in assay [11] and in assay [13] were below 8 nM and 1 to 10 nM, respectively.

B8: ABU14 (IgG, chimeric version of the Fab) (antibody, V domains shown)
VH: EVQLQQSGPELVKPGASVKISCKASGYSFTNYHIHWVKQRPGQGLEWIGWIYPGSGNTKYNEKFKGMAILTADTSSSTAYMQLSSLTSEDSAVYYCARYDYDLYLHSWGQGTTVTVSS
VL: DIQINQSPSSLSASLGDTITITCHASQNINVWLSWYQQKPGNIPKLLIYKASNLHTGVPSRFSGSGSGTGFTLTISSLQPEDIATYYCQQGQSYPLTFGAGTKLEIK
As for B8, the “EC50 (read off the curve)” value in assay [16] is around 0.4 nM; in [17], around 0.05 nM. The IC50 in assay [18] and in assay [19] was below 1 nM throughout. Further, the “IC50 (read off the curve)” value in assay [20] is around 0.3 nM; in assay [21], around 0.8 nM.

B9: ABU9 (IgG, chimeric version of the Fab) (antibody, V domains shown)
VH: EVQLQQSGPELVKPGASVKLSCKASGFTFTNYYIHWVKQRPGQGPEWIGWIYLGSGNTKYNEKFKGKATLTADTSSSTAYLQLSTLISEDSAVYYCARYDYDLYLDSWGQGTTVTVSS
VL: B8 VL with Q3K, I4M, I106L
Take B9: the “EC50 (read off the curve)” value in assay [16] was around 0.4 nM; in [17], around 0.05 nM. For the same molecule, the IC50 in assay [18] and in assay [19] was below 1 nM in each case. Also, the results for the “IC50 (read off the curve)” value in assay [20] and in assay [21] were around 0.3 nM and around 0.8 nM, respectively.
